Test results as given in patent publication US6646113 (University of Pennsylvania, dated 2003).

Assays:
[1] = biological target: T1, GST-SMN fusion protein (human, UniProt Q16637 1-294); assay: GST pull-down, 35S IVT protein
T1 construct: Recombinant from E. coli, immobilised on glutathione-Sepharose; also called GST-SMNwt; GST-SMN chimeric protein; not shown: glutathione S-transferase (GST) tag of vector pGEX-5X

[2] = biological target: Sm D1 protein, in vitro translated and 35S-labeled (UniProt P62314 1-119); assay: GST pull-down, 35S IVT protein
[3] = biological target: T1, GST-SMN fusion protein; assay: GST pull-down, 35S IVT protein (FIG. 44)
[4] = biological target: T2, GST alone (UniProt P08515 1-218 = GST); assay: GST pull-down, 35S IVT protein
T2 construct: Negative control on glutathione-Sepharose; also called glutathione S-transferase

[5] = biological target: T3, His-tagged SMN wild type, purified recombinant (human, UniProt Q16637 1-294); assay: in vitro binding of purified recombinant protein to GST-SIP1
T3 construct: E. coli BL21(DE3)pLysS, nickel chelation chromatography; also called His-SMN; His6-SMN; not shown: His6 tag (pET28 vector, detected with anti-T7 tag antibody)

[6] = biological target: T4, His-tagged SMNY272C, purified recombinant (human, UniProt Q16637 1-294); assay: as above
T4 construct: also called His-SMNY272C; SMNY272C recombinant protein; not shown: His6 tag (pET28 vector)

[7] = biological target: T5, SMN, endogenous protein in human cell extracts (human, UniProt Q16637 2-294); assay: co-IP with 2B1 from transfected 293T cells, Western blot
T5 construct: also called Survival of Motor Neurons protein

[8] = biological target: recombinant SMN protein (far-Western target) (human, UniProt Q16637 1-294, limits assumed); assay: far-Western with in vitro translated SIP1
[9] = biological target: T6, myc-tagged SMNY272C (human, UniProt Q16637 1-294); assay: co-IP with 2E17 from transfected 293T cells, Western blot
T6 construct: In vitro translated (35S) or expressed in 293T cells

[10] = biological target: T5, SMN, endogenous protein in human cell …; assay: gel filtration (Superose 6 HR 10/30) of HeLa S100, Western blot
[11] = biological target: T7, myc-tagged SMN wild type (human, UniProt Q16637 1-294); assay: co-IP with 2E17 from transfected 293T cells, Western blot (association in a complex)
T7 construct: In vitro translated (35S) or expressed in transfected 293T cells; also called myc-SMN; mycSMN
T7 sequence (Q16637 whole entry): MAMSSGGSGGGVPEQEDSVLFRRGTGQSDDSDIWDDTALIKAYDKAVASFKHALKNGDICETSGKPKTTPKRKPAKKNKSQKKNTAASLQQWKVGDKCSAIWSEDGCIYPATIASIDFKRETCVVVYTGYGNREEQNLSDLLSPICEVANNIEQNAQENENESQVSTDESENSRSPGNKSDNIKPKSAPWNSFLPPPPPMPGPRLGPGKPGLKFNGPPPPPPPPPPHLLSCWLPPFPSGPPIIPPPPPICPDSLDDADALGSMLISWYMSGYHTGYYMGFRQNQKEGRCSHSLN

T1 sequence (Q16637 whole entry, the tested form may be a part): as the sequence (Q16637 whole entry) above
T5 sequence (Q16637 2-294 limits assumed): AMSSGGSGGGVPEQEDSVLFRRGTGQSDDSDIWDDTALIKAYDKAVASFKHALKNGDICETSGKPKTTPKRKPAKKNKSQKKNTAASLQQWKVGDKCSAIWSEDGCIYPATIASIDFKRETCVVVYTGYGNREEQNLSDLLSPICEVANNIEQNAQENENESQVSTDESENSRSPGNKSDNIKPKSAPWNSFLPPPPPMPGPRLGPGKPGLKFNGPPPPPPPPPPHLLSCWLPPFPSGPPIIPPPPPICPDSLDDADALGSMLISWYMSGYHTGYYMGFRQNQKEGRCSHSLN
Sequence of recombinant SMN protein (far-Western target) (Q16637 whole entry): as the sequence (Q16637 whole entry) above
T3 sequence (Q16637 whole entry): as above
T2 sequence (P08515 whole entry): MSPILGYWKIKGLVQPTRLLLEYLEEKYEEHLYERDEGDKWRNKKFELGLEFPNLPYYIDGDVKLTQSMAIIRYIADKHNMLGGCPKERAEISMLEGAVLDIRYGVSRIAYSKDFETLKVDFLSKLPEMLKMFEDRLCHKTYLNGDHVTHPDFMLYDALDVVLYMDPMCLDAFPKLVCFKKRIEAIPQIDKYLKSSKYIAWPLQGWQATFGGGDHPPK
T6 sequence (Q16637 whole entry Y272C): as the sequence (Q16637 whole entry) above, with Y272C counted along it
T4 sequence (Q16637 whole entry Y272C): as the sequence (Q16637 whole entry) above, with Y272C counted along it

B1: myc-ΔN548Gemin3 (other, not shown: small tags and cut ends)
chain: SVQTPVENSTNSQHQVKEALPVSLPQIPCLSSFKIHQPYTLTFAELVEDYEHYIKEGLEKPVEIIRHYTGPGDQTVNPQNGFVRNKVIEQKVPVLASSSQSGDSESDSDSYSSRTSSQSKGNKSYLESSSDNQLKDSESTPVDDRISLEQPPNGTDTPNPEKYQESPGIQMKTRLKEGASQRAKQSRRNLPRRSSFRLQTEAQEDDWYDCHREIRLSFSDTYQDYEEYWRAYYRAWQEYYAAASHSYYWNAQRHPSWMAAYHMNTIYLQEMMHSNQ
B1: no binding [1].

B2: GST-Gemin3 fusion protein (other)
chain: MAAAFEASGALAAVATAMPAEHVAVQVPAPEPTPGPVRILRTAQDLSSPRTRTGDVLLAEPADFESLLLSRPVLEGLRAAGFERPSPVQLKAIPLGRCGLDLIVQAKSGTGKTCVFSTIALDSLVLENLSTQILILAPTREIAVQIHSVITAIGIKMEGLECHVFIGGTPLSQDKTRLKKCHIAVGSPGRIKQLIELDYLNPGSIRLFILDEADKLLEEGSFQEQINWIYSSLPASKQMLAVSATYPEFLANALTKYMRDPTFVRLNSSDPSLIGLKQYYKVVNSYPLAHKVFEEKTQHLQELFSRIPFNQALVFSNLHSRAQHLADILSSKGFPAECISGNMNQNQRLDAMAKLKHFHCRVLISTDLTSRGIDAEKVNLVVNLDVPLDWETYMHRIGRAGRFGTLGLTVTYCCRGEEENMMMRIAQKCNINLLPLPDPIPSGLMEECVDWDVEVKAAVHTYGIASVPNQPLKKQIQKIERTLQIQKAHGDHMASSRNNSVSGLSVKSKNNTKQKLPVKSHSECGIIEKATSPKELGCDRQSEEQMKNSVQTPVENSTNSQHQVKEALPVSLPQIPCLSSFKIHQPYTLTFAELVEDYEHYIKEGLEKPVEIIRHYTGPGDQTVNPQNGFVRNKVIEQKVPVLASSSQSGDSESDSDSYSSRTSSQSKGNKSYLESSSDNQLKDSESTPVDDRISLEQPPNGTDTPNPEKYQESPGIQMKTRLKEGASQRAKQSRRNLPRRSSFRLQTEAQEDDWYDCHREIRLSFSDTYQDYEEYWRAYYRAWQEYYAAASHSYYWNAQRHPSWMAAYHMNTIYLQEMMHSNQ
notes: also called Gemin3-GST; not shown: glutathione S-transferase (GST) tag of vector pGEX-5X-3
B2: no binding [2].

B3: myc-tagged SIP1ΔC162 (other, not shown: small tags and cut ends)
chain: MRRAELAGLKTMAWVPAESAVEELMPRLLPVEPCDLTEGFDPSVPPRTPQEYLRRVQIEAAQCPDVVVAQIDPKKLKRKQSVNISLSGCQPAPEGYSPTLQWQQQQVAQFSTVRQNVN
B3: no binding [3].

B4: myc-ΔN368C277Gemin3 (other, not shown: small tags and cut ends)
chain: TSRGIDAEKVNLVVNLDVPLDWETYMHRIGRAGRFGTLGLTVTYCCRGEEENMMMRIAQKCNINLLPLPDPIPSGLMEECVDWDVEVKAAVHTYGIASVPNQPLKKQIQKIERTLQIQKAHGDHMASSRNNSVSGLSVKSKNNTKQKLPVKSHSECGIIEKATSPKELGCDRQSEEQMK
notes: also called ΔN368C272Gemin3
B4: no binding [4].

B5: GST-SIP1 fusion protein (other, not shown: a dimerising Fc or GST)
chain: MRRAELAGLKTMAWVPAESAVEELMPRLLPVEPCDLTEGFDPSVPPRTPQEYLRRVQIEAAQCPDVVVAQIDPKKLKRKQSVNISLSGCQPAPEGYSPTLQWQQQQVAQFSTVRQNVNKHRSHWKSQQLDSNVTMPKSEDEEGWKKFCLGEKLCADGAVGPATNESPGIDYVQIGFPPLLSIVSRMNQATVTSVLEYLSNWFGERDFTPELGRWLYALLACLEKPLLPEAHSLIRQLARRCSEVRLLVDSKDDERVPALNLLICLVSRYFDQRDLADEPS
B5: binds [5]; binds [6].

B6: myc-tagged SIP1 wild type (other, not shown: small tags and cut ends)
chain: MRRAELAGLKTMAWVPAESAVEELMPRLLPVEPCDLTEGFDPSVPPRTPQEYLRRVQIEAAQCPDVVVAQIDPKKLKRKQSVNISLSGCQPAPEGYSPTLQWQQQQVAQFSTVRQNVNKHRSHWKSQQLDSNVTMPKSEDEEGWKKFCLGEKLCADGAVGPATNESPGIDYVQIGFPPLLSIVSRMNQATVTSVLEYLSNWFGERDFTPELGRWLYALLACLEKPLLPEAHSLIRQLARRCSEVRLLVDSKDDERVPALNLLICLVSRYFDQRDLADEPS
notes: In vitro translated (35S) or expressed in 293T cells; also called myc-SIP1; myc-Gemin2
B6: binds [7].

B7: SIP1 (human), in vitro translated and 35S-labeled (other)
chain: MRRAELAGLKTMAWVPAESAVEELMPRLLPVEPCDLTEGFDPSVPPRTPQEYLRRVQIEAAQCPDVVVAQIDPKKLKRKQSVNISLSGCQPAPEGYSPTLQWQQQQVAQFSTVRQNVNKHRSHWKSQQLDSNVTMPKSEDEEGWKKFCLGEKLCADGAVGPATNESPGIDYVQIGFPPLLSIVSRMNQATVTSVLEYLSNWFGERDFTPELGRWLYALLACLEKPLLPEAHSLIRQLARRCSEVRLLVDSKDDERVPALNLLICLVSRYFDQRDLADEPS
notes: Made in rabbit reticulocyte lysate; also called full-length SIP1; Gemin2
B7: binds [8].

B8: SIP1 (Gemin2), endogenous protein in human cell extracts (other)
chain: MRRAELAGLKTMAWVPAESAVEELMPRLLPVEPCDLTEGFDPSVPPRTPQEYLRRVQIEAAQCPDVVVAQIDPKKLKRKQSVNISLSGCQPAPEGYSPTLQWQQQQVAQFSTVRQNVNKHRSHWKSQQLDSNVTMPKSEDEEGWKKFCLGEKLCADGAVGPATNESPGIDYVQIGFPPLLSIVSRMNQATVTSVLEYLSNWFGERDFTPELGRWLYALLACLEKPLLPEAHSLIRQLARRCSEVRLLVDSKDDERVPALNLLICLVSRYFDQRDLADEPS
B8: binds [9]; binds [10]; binds [11].

B9: myc-tagged SIP1ΔC89 (other, not shown: small tags and cut ends)
chain: MRRAELAGLKTMAWVPAESAVEELMPRLLPVEPCDLTEGFDPSVPPRTPQEYLRRVQIEAAQCPDVVVAQIDPKKLKRKQSVNISLSGCQPAPEGYSPTLQWQQQQVAQFSTVRQNVNKHRSHWKSQQLDSNVTMPKSEDEEGWKKFCLGEKLCADGAVGPATNESPGIDYVQIGFPPLLSIVSRMNQATV
notes: The whole entry must be cut by 89 residues at the C-terminus
B9: no binding [3]; no binding [7].
